Tests used:
human 4-1BB on cells [1] = target: T1, human 4-1BB on cells (human, UniProt Q07011 24-255); test: cell-based or functional assay
human 4-1BB on cells [2] = target: T1, human 4-1BB on cells; test: cell-based or functional assay; remark: listed apart in the source
human 4-1BB on cells [3] = target: T1, human 4-1BB on cells; test: cell-based or functional assay; remark: listed apart in the source
human 4-1BB on cells [4] = target: T1, human 4-1BB on cells; test: cell-based or functional assay; remark: listed apart in the source
human 4-1BB on cells [5] = target: T1, human 4-1BB on cells; test: flow cytometry on HEK293/h4-1BB cells, APC anti-human secondary
Procedure: (§1) The ability of the multispecific antigen binding molecules to bind cells was assessed using flow cytometry. Cell lines were chosen to determine the ability of both the anti-CD38 and anti-4-1BB arms to bind their targets. […] Binding was detected by using a labeled secondary antibody and measuring fluorescence on a flow cytometer.
HEK293 and HEK293/4-1BB cells were lifted with trypsin, washed and resuspended in stain buffer (2% FBS in PBS) and added to wells of a 96 well V-bottom plate (3×10⁵ cells/well). A 1:5, 9-point, dose titration of test antibodies was diluted in stain buffer and added to cells to a final concentration ranging from 1.3 pM to 100 nM (a “no antibody” control was included as the ninth point ([…]) labeled as “secondary only”). Cells and antibodies were incubated for 30 min on ice and then washed in stain buffer. Cells were resuspended in 2 ug/ml allophycocyanin (APC) conjugated goat-anti human secondary antibody and incubated for 30 min on ice. Cells were then washed and resuspended in viability dye (according to the manufacturer's protocol) and incubated for 30 min on ice. Cells were then washed with stain buffer and resuspended in 2% PFA for 30 min on ice. After washing, cells were filtered and analyzed by flow cytometry to determine the geometric mean fluorescence intensity (gMFI), which was subsequently plotted using GraphPad Prism software. EC₅₀ values of the antibodies were determined from a 4-parameter logistic equation over a 9-point dose response curve (including secondary only control).

[6] = target: T2, human CD38 endogenously expressed on MOLP8 cells (human, UniProt P28907 1-300); test: flow cytometry on MOLP8 cells (endogenous hCD38), APC anti-human secondary
T2 construct: whole, on cells; also called hCD38
Procedure: as §1
HEK293 cells were lifted with trypsin, washed and resuspend in stain buffer (2% FBS in PBS). MOLP8 cells were washed and resuspended in stain buffer. Cells were added to wells of a 96 well V-bottom plate (3×10⁵ cells/well). A 1:4, 9-point, dose titration of test antibodies was diluted in stain buffer and added to cells to a final concentration ranging from 610 fM to 10 nM (a “no antibody” control was included as the ninth point (153fM), labeled as “secondary only”). Cells and antibodies were incubated for 30 min on ice and then washed in stain buffer. Cells were resuspended in 2 ug/ml allophycocyanin (APC) conjugated goat-anti human secondary antibody and incubated for 30 min on ice. Cells were then washed and resuspended in viability dye (according to the manufacturer's protocol) and incubated for 30 min on ice. Cells were then washed with stain buffer and resuspended in 2% PFA for 30 min on ice. After washing, cells were filtered and analyzed by flow cytometry to determine the geometric mean fluorescence intensity (gMFI), which was subsequently plotted using GraphPad Prism software. EC₅₀ values of the antibodies were determined from a 4-parameter logistic equation over a 9-point dose response curve (including secondary only control, representing the ninth point).

[7] = target: T3, human 4-1BB expressed with a C-terminal myc-myc-hexahistidine tag (human, UniProt Q07011 24-186); test: SPR Biacore 8k, antibody captured by anti-human Fc, h4-1BB.mmH as analyte, 25 C
T3 construct: also called h4-1BB.mmH; REGN3584; not shown: C-terminal myc-myc-hexahistidine tag
T3 sequence (Q07011 24-186 limits assumed): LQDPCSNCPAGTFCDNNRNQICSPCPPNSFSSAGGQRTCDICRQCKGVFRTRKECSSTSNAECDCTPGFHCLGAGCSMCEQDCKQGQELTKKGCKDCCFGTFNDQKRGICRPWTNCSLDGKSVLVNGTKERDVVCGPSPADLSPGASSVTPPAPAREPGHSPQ
Procedure: (§2) Equilibrium dissociation constants (KD values) for human 4-1BB expressed with a C-terminal myc-myc-hexahistidine tag (h4-1BB.mmH, REGN3584) or human 4-1BB expressed with a C-terminal murine Fc tag (h4-1BB.mFc, REGN3585) binding to purified anti-CD38×4-1BB 1+2 antibodies were determined using a real-time surface plasmon resonance biosensor using a Biacore 8k instrument. The CM5 Biacore sensor surface was derivatized by amine coupling with a monoclonal mouse anti-human Fc antibody (REGN2567). All Biacore binding studies were performed in a buffer composed of 0.01M HEPES pH 7.4, 0.15M NaCl, 3 mM EDTA, 0.05% v/v Surfactant P20 (HBS-EP running buffer). […] Antibody-reagent association was monitored for 5 minutes while dissociation in HBS-EP running buffer was monitored for 10 minutes. At the end of each cycle, the anti-CD38×4-1BB 1+2 antibody capture surface was regenerated using a 10 second injection of 20 mM phosphoric acid. All binding kinetics experiments were performed at 25° C.
(§3) Kinetic association (kₐ) and dissociation (kd) rate constants were determined by fitting the real-time sensorgrams to a 1:1 binding model using Cytiva Insight curve fitting software. Binding dissociation equilibrium constants (KD) and dissociative half-lives (t/2) were calculated from the kinetic rate constants as: […]

[8] = target: T4, human 4-1BB expressed with a C-terminal murine Fc tag (human, UniProt Q07011 24-186); test: SPR Biacore 8k, antibody captured by anti-human Fc, h4-1BB.mFc as analyte, 25 C
T4 construct: also called h4-1BB.mFc; REGN3585; not shown: C-terminal murine Fc tag
T4 sequence (Q07011 24-186 limits assumed): as above
Procedure: as §2, §3

[9] = target: T4, human 4-1BB expressed with a C-terminal …; test: SPR Biacore 4000, h4-1BB.mFc captured by anti-mouse Fc, antibody as analyte, 25 C
Procedure: Equilibrium dissociation constants (KD values) for human 4-1BB expressed with a C-terminal murine Fc tag (h4-1BB.mFc, REGN3585) binding to purified anti-CD38×4-1BB 1+2 antibodies were determined using a real-time surface plasmon resonance biosensor using a Biacore 4000 instrument. […] All Biacore binding studies were performed in a buffer composed of 0.01M HEPES pH 7.4, 0.15M NaCl, 3 mM EDTA, 0.05% v/v Surfactant P20 (HBS-EP running buffer). Different concentrations of CD38×4-1BB 1+2 constructs prepared in HBS-EP running buffer (ranging from 100 to 6.25 nM in 4-fold serial dilutions) were injected over the h4-1BB.mFc (REGN3585) captured surface at a flow rate of 30 μL/minute. Antibody-reagent association was monitored for 5 minutes while dissociation in HBS-EP running buffer was monitored for 10 minutes. At the end of each cycle, the h4-1BB.mFc capture surface was regenerated using a 40 sec injection of 10 mM glycine, pH 1.5. All binding kinetics experiments were performed at 25° C.
as §3

T1 sequence (Q07011 24-255): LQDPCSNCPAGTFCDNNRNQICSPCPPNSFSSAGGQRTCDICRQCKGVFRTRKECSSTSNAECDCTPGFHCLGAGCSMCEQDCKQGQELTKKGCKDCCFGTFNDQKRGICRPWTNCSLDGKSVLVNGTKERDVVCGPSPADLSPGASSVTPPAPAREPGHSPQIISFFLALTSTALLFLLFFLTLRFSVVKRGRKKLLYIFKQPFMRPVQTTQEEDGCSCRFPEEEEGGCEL

B1: REGN7650 (bispecific antibody, human IgG4 S228P, kappa)
heavy 1: EVQLVESGGGLVQPGGSLRLPCAASGFTFSSYAMSWVRQAPGKGLEWVADISGSGGDTYYVDSVKGRFTISRDNSKNTLYLQMNSLRIEDTAVYYCAKGRWHWNYEGFDIWGQGTMVTVSSASTKGPSVFPLAPCSRSTSESTAALGCLVKDYFPEPVTVSWNSGALTSGVHTFPAVLQSSGLYSLSSVVTVPSSSLGTKTYTCNVDHKPSNTKVDKRVESKYGPPGGGGSGGGGSGGGGSQVQLVESGGDVVQPGRSLRLSCTASGFTFSSFGMHWVRQAPGKGLEWVTFLSYDGSYKYYADSVKGRFTISRDNSKNTLYLQMNSLRAEDTAIFYCARDWLDYWGQGTLVTVSSASTKGPSVFPLAPCSRSTSESTAALGCLVKDYFPEPVTVSWNSGALTSGVHTFPAVLQSSGLYSLSSVVTVPSSSLGTKTYTCNVDHKPSNTKVDKRVESKYGPPCPPCPAPPVAGPSVFLFPPKPKDTLMISRTPEVTCVVVDVSQEDPEVQFNWYVDGVEVHNAKTKPREEQFNSTYRVVSVLTVLHQDWLNGKEYKCKVSNKGLPSSIEKTISKAKGQPREPQVYTLPPSQEEMTKNQVSLTCLVKGFYPSDIAVEWESNGQPENNYKTTPPVLDSDGSFFLYSRLTVDKSRWQEGNVFSCSVMHEALHNRFTQKSLSLSPGK
heavy 2: EVQLVESGGGLVQPGRSLRLSCAASGFTFDDYAMHWVRQAPGKGLEWVSGISWKSDNIGYADSVKGRFTISRDNAKNSLYLQMNSLRAEDTALYYCAKALGGWKFDYYYGMDVWGQGTTVTVSSASTKGPSVFPLAPCSRSTSESTAALGCLVKDYFPEPVTVSWNSGALTSGVHTFPAVLQSSGLYSLSSVVTVPSSSLGTKTYTCNVDHKPSNTKVDKRVESKYGPPCPPCPAPPVAGPSVFLFPPKPKDTLMISRTPEVTCVVVDVSQEDPEVQFNWYVDGVEVHNAKTKPREEQFNSTYRVVSVLTVLHQDWLNGKEYKCKVSNKGLPSSIEKTISKAKGQPREPQVYTLPPSQEEMTKNQVSLTCLVKGFYPSDIAVEWESNGQPENNYKTTPPVLDSDGSFFLYSRLTVDKSRWQEGNVFSCSVMHEALHNHYTQKSLSLSLGK
light: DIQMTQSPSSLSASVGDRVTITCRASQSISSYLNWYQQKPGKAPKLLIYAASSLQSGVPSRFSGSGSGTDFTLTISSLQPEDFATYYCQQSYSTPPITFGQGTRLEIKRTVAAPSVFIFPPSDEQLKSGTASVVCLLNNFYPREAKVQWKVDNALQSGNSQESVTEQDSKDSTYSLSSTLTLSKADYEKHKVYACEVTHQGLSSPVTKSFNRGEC
notes: 1+2 format, hIgG4P-PVA; also called CD38x4-1BB (1 + 2); 26812P2 x 25898P2 (IN) + 35321P2 (OUT)
- EC50 of IL-2 release, T cells + HEK293/CD20/CD38 + REGN1979 (human 4-1BB on cells [1]): 14 pM
- EC50 of IL-2 release, T cells + MOLP-8 + REGN5458 (human 4-1BB on cells [1]): 31.7 pM
- MAX IL-2 release, T cells + HEK293/CD20 + REGN1979 (human 4-1BB on cells [1]): 184 pg/mL
- MAX IL-2 release, T cells + HEK293/CD20/CD38 + IsoC (human 4-1BB on cells [1]): 10 pg/mL
- MAX IL-2 release, T cells + HEK293/CD20/CD38 + REGN1979 (human 4-1BB on cells [1]): 2720 pg/mL
- MAX IL-2 release, T cells + MOLP-8 + IsoC (human 4-1BB on cells [1]): 288 pg/mL
- MAX IL-2 release, T cells + MOLP-8 + REGN5458 (human 4-1BB on cells [1]): 553 pg/mL
- EC50 of luciferase activity, HEK293/NFkB-Luc/h4-1BB reporter + OPM2 (human 4-1BB on cells [2]): 98.9 pM
- MAX luciferase activity, HEK293/NFkB-Luc/h4-1BB reporter + HEK293/CD20 (human 4-1BB on cells [2]): 1.5e+06 RLU
- MAX luciferase activity, HEK293/NFkB-Luc/h4-1BB reporter + HEK293/CD20/CD38 (human 4-1BB on cells [2]): 2.3e+06 RLU
- MAX luciferase activity, HEK293/NFkB-Luc/h4-1BB reporter + MOLP-8 (human 4-1BB on cells [2]): 2.4e+06 RLU
- MAX luciferase activity, HEK293/NFkB-Luc/h4-1BB reporter + OPM2 (human 4-1BB on cells [2]): 2e+06 RLU
- EC50 of IL-2 release, T cells + NALM6 + Cemiplimab (human 4-1BB on cells [3]): 155 pM
- EC50 of IL-2 release, T cells + NALM6 + IgG4P (human 4-1BB on cells [3]): 179 pM
- EC50 of IL-2 release, T cells + NALM6/PD-L1 + Cemiplimab (human 4-1BB on cells [3]): 283 pM
- EC50 of IL-2 release, T cells + NALM6/PD-L1 + IgG4P (human 4-1BB on cells [3]): 228 pM
- EC50 of IFNγ release, T cells + NALM-6 + Cemiplimab (human 4-1BB on cells [4]): 156 pM
- EC50 (human 4-1BB on cells [5]): 997 pM
- MAX gMFI (human 4-1BB on cells [5]): 1e+06 gMFI
- MAX gMFI [6]: 140000 gMFI
- 100 nM h4-1BB.mmH Bind (RU) [7]: 41.9 RU
- Kd [7]: 20400 pM
- koff [7]: 0.00535 s⁻¹
- kon [7]: 262000 M⁻¹ s⁻¹
- t½ [7]: 2.2 min
- 100 nM h4-1BB.mFc Bind (RU) [8]: 152 RU
- Kd [8]: 1200 pM
- koff [8]: 0.000122 s⁻¹
- kon [8]: 102000 M⁻¹ s⁻¹
- t½ [8]: 1.58 h
- 100 nM Ab Bind (RU) [9]: 266 RU
- Kd [9]: 797 pM
- koff [9]: 0.000169 s⁻¹
- kon [9]: 212000 M⁻¹ s⁻¹
- t½ [9]: 1.14 h

— patent US20230416396A1 (Regeneron, published 2023)
